In publication PMC8042174 one finds Kd data, which are given here for 7 molecules.

Sequences and labels used below:
B1: pSer162-PDZ2 (133–300 aa) (domain or fragment)
chain: NENEPREADKSHPEQRELRPRLCTMKKGPSGYGFNLHSDKSKPGQFIRSVDPDSPAEASGLRAQDRIVEVNGVCMEGKQHGDVVSAIRAGGDETKLLVVDRETDEFFKKCRVIPSQEHLNGPLPVPFTNGEIQKENSREALAEAALESPRPALVRSASSDTSEELNSQ
modifications: phosphoserine at 162
B2: S162A-PDZ2 (133–300 aa) (domain or fragment)
chain: B1 chain with S30A
B3: WT PDZ2 domain (133–300 aa) of NHERF1 (domain or fragment)
chain: B1 chain
B4: recombinant full-length NHERF1 (natural protein)
chain: MSADAAAGAPLPRLCCLEKGPNGYGFHLHGEKGKLGQYIRLVEPGSPAEKAGLLAGDRLVEVNGENVEKETHQQVVSRIRAALNAVRLLVVDPETDEQLQKLGVQVREELLRAQEAPGQAEPPAAAEVQGAGNENEPREADKSHPEQRELRPRLCTMKKGPSGYGFNLHSDKSKPGQFIRSVDPDSPAEASGLRAQDRIVEVNGVCMEGKQHGDVVSAIRAGGDETKLLVVDRETDEFFKKCRVIPSQEHLNGPLPVPFTNGEIQKENSREALAEAALESPRPALVRSASSDTSEELNSQDSPPKQDSTAPSSTSSSDPILDFNISLAMAKERAHQKRSSKRAPQMDWSKKNELFSNL
B5: recombinant N1P1-GAGA (natural protein)
chain: B4 chain with Y24A, F26A
B6: recombinant N1P2-GAGA (natural protein)
chain: B4 chain with Y164A, F166A
B7: NHERF1 PDZ1 domain (1-140 aa), isolated (domain or fragment)
chain: MSADAAAGAPLPRLCCLEKGPNGYGFHLHGEKGKLGQYIRLVEPGSPAEKAGLLAGDRLVEVNGENVEKETHQQVVSRIRAALNAVRLLVVDPETDEQLQKLGVQVREELLRAQEAPGQAEPPAAAEVQGAGNENEPREA

Positions count from the first letter of the chain named. Numbers in names are those of the source. A value given as a limit tells only on which side of the number the result lay.

For the first assay, the target named is FITC-labeled human GRK6A C-terminal 22 amino acid peptide, GRK6Act-22 (human). Briefly: fluorescence polarisation; fluorescence anisotropy, direct saturation binding in solution; recombinant protein titrated to fixed FITC-GRK6Act-22 (0.4–1.0 μM); PBS pH 7.4, 0.1% BSA, 1 mM DTT, 23 °C; quadratic fit. On the technique in general: In fluorescence polarisation assays a small probe gives low polarisation when free and higher when bound to something large.
As for B1, the Kd (in general, the equilibrium constant for the complex coming apart) is 26.1 µM. On the same count and under the same terms, in the case of B2 it was 43.4 µM. Consider B3, for which the Kd came out at 51.3 µM.

Consider B4, for which the Kd turned out to be 5.3 µM. On the same count and under the same terms, with B5 the figure was greater than 100 µM; with B6, 3.6 µM.

For a further assay the target is unchanged. The experiment in a line: fluorescence polarisation; fluorescence anisotropy saturation binding in solution; increasing amounts of recombinant protein added to a fixed concentration of FITC-labeled GRK6Act-22 (0.4-1.0 uM); PBS pH 7.4, 0.1% BSA, 1 mM DTT; 23 °C; 96-well format; quadratic fit.
Turning to B7, the Kd amounted to 6.6 µM.
